{
  "source": "patent US20240400627A1",
  "key": {"[1]": {"target": "Nicotinamide Nucleotide Transhydrogenase (NNT), endogenous, mouse kidney (mouse) (UniProt Q61941)", "sequence (Q61941 44-1086 limits assumed)": "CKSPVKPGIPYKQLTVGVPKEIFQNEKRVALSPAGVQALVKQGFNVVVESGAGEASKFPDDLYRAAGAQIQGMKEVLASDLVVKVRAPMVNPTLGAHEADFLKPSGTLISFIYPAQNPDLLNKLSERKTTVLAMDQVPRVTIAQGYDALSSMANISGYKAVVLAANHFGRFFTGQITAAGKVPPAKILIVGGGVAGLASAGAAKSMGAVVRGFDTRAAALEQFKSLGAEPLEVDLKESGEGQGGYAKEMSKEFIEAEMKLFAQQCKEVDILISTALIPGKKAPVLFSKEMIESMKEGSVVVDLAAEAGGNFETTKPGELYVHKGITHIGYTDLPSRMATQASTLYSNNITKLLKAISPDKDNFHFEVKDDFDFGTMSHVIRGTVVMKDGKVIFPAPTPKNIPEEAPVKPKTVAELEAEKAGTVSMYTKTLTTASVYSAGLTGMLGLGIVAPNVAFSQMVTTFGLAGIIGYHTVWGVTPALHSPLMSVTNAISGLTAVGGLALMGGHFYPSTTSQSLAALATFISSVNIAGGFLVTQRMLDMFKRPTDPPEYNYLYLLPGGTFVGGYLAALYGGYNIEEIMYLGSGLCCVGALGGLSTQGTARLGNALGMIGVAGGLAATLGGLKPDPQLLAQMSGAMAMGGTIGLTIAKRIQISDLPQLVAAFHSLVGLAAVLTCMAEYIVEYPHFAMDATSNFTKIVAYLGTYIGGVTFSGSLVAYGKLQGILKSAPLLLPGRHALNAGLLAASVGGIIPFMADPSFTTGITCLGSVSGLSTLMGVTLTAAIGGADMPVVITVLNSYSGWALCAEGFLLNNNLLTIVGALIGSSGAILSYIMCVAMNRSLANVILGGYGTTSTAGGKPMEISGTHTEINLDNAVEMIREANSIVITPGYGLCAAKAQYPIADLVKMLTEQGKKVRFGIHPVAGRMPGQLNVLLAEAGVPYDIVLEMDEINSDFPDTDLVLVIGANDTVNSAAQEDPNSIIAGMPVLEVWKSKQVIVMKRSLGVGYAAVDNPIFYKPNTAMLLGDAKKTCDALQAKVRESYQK", "experiment": "anti-HA immunoprecipitation from DTSSP-crosslinked crude mitochondria, LC-MS/MS proteomics, n=3 per group"}, "[2]": {"target": "Ganab (glucosidase II alpha-subunit), endogenous, mouse kidney (mouse) (UniProt Q8BHN3)", "sequence (Q8BHN3 33-944 limits assumed)": "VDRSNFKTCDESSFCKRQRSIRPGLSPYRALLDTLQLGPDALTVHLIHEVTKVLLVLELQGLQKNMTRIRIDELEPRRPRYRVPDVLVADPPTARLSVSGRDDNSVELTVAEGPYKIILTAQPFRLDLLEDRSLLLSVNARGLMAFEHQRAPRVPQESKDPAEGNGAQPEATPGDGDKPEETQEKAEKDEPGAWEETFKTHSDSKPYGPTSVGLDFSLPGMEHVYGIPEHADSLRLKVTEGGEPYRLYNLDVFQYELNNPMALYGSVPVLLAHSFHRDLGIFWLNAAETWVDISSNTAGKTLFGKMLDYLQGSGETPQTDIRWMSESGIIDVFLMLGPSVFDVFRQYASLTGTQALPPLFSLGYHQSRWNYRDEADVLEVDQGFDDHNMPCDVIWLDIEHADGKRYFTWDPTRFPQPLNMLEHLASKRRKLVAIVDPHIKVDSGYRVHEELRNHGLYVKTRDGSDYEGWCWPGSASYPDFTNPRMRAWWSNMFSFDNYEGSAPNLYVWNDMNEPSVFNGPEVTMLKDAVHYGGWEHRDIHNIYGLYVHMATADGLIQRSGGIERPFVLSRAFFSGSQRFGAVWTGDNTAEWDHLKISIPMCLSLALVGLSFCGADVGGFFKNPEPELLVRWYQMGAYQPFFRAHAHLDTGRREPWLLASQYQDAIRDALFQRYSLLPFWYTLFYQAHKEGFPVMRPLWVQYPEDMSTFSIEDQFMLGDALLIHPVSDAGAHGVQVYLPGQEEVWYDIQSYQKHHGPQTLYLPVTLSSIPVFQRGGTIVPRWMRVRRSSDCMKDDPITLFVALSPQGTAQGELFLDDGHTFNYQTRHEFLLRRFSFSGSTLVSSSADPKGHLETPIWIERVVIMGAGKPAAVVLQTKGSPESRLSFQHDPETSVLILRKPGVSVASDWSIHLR", "experiment": "anti-HA immunoprecipitation from DTSSP-crosslinked crude mitochondria (contain MAMs), LC-MS/MS proteomics"}},
  "data": [
    {"substance": "3FLAG-PC1-3HA (PC1 tagged with a 3xFLAG epitope at its N-terminus and a 3xHA sequence at its C-terminus, Pkd1F/H-BAC mouse) and its HA-tagged fragments (150-kDa CTF; PC1-CTT-3HA fragments of 17-37 kDa) (from UniProt O08852 3041-4293)", "values": [
      {"measurement": "fold amount of NNT co-immunoprecipitated against control WT immunoprecipitates", "setting": "[1]", "value": "> 16", "unit": "fold"},
      {"measurement": "fold enrichment in immunoprecipitates against WT", "setting": "[2]", "value": 4, "unit": "fold"}
    ]}
  ]
}
